Biological target: CD123 on the surface of EOL-1, KOPN-8 and MOLM-1 cells (UniProt P26951)
Test: cell-based or functional assay

Chain of CD123 on the surface of EOL-1, KOPN-8 and MOLM-1 cells (P26951 19-378 limits assumed): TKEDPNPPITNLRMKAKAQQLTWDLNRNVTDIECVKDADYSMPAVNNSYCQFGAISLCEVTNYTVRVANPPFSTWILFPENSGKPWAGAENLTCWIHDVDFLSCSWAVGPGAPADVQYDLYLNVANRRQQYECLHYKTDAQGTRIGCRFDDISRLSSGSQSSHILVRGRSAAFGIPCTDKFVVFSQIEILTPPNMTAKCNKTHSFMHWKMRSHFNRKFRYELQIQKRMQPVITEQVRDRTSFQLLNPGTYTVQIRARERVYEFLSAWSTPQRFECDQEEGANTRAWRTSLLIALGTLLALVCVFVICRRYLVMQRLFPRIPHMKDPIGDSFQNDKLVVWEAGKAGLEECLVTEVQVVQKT

B1: huCD123-6Rv1.1-D2 (antibody, from a related filing, V domains shown)
VH: QFQLVQSGAEVVKPGASVKMSCKASGYTFTSSIMHWMKQKPGQGLEWIGYIKPYNDGTKYNQKFQGKATLTSDKSSSTANMELNSLTSEDSAVYYCAREGGNDYYDTMDYWGQGTSVTVSS
VL: DIQMTQSPSSMSASVGERVTITCRASQDINSYLSWFQQKPGKSPKTLIYRVNRLVDGVPSRFSGSGSGQDYSLTISSLEPEDMGIYYCLQYDAFPYTFGQGTKLEIKR
IC50, in vitro cytotoxicity assay (WST-8), EOL-1 cells: 2 pM
IC50, in vitro cytotoxicity assay (WST-8), KOPN-8 cells: 5 pM
IC50, in vitro cytotoxicity assay (WST-8), MOLM-1 cells: 20 pM
fold loss of cytotoxicity when CD123 is blocked by chCD123-6: 100 fold
